Data on 16 molecules can be found in patent US20250197467A1 (BRIGHT PEAK THERAPEUTICS, published 2025).

Common to all, as to test: cell-based or functional assay
The target of experiment [1] is T1, IL-18 receptor (IL-18Rαβ) on cells (UniProt Q13478 19-541; O95256 20-599, limits assumed).
T1 sequence (looked up) 1: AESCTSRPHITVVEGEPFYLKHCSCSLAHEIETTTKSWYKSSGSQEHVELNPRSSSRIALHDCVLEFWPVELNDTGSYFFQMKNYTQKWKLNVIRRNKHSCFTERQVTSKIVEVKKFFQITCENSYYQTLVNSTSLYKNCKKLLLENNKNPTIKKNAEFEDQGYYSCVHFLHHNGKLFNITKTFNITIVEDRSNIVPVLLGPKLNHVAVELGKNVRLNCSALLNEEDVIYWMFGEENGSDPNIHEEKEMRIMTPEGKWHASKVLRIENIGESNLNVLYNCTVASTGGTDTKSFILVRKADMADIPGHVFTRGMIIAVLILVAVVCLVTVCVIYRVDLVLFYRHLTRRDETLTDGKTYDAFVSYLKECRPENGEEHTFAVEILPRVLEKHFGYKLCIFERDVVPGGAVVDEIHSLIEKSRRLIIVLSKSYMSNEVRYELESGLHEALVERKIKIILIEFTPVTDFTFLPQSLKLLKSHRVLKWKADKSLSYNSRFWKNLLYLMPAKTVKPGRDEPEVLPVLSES
T1 sequence (looked up) 2: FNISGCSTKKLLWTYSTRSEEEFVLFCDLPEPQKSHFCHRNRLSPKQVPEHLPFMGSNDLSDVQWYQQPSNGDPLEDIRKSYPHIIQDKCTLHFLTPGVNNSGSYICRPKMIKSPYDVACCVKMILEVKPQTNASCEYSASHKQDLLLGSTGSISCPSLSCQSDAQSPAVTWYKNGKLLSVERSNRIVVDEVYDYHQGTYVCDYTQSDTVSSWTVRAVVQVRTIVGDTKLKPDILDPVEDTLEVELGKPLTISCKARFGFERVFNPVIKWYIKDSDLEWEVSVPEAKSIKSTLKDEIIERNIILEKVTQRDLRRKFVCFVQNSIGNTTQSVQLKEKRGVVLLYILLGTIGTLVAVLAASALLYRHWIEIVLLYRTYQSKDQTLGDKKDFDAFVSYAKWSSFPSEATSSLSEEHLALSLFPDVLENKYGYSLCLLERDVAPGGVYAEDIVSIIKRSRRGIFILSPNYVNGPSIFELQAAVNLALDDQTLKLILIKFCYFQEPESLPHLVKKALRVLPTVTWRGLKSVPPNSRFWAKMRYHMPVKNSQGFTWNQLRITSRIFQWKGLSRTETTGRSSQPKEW

Experiment [2] addresses T1, IL-18 receptor (IL-18Rαβ) on cells. This is another data set of the same source.
Experiment [3] has the same target. This is another data set of the same source.

B1: C326 + MMP9 (ligand)
chain: LAGSGYFGKLKSKLSIIRNLNDQVLFIDQGNRPLFEDMTDSDARDNAPRTIFIISMYADSQPRGMAVAISVKCEKISTLSAENKIISFKEMNPPDNIKDTKSDIIFFQRSVPGHDNKMQFESSSYEGYFLAAEKERDLFKLILKKEDELGDRSIMFTVQNED
Take B1: the “IFNγ release NK-92 assay EC50” value in experiment [1] came out at 0.0514 nM.

B2: C172 (ligand)
chain: YFGKLKSKLSIIRNLNDQVLFIDQGNRPLFEDMTDSDARDNAPRTIFIISMYADSQPRGMAVAISVKCEKISTLSAENKIISFKEMNPPDNIKDTKSDIIFFQRSVPGHDNKMQFESSSYEGYFLAAEKERDLFKLILKKEDELGDRSIMFTVQNESGGPGPAGMKGLPGSNIVPVLLGPKLNHVAVELGKNVRLNCSALLNEEDVIYWMFGEENGSDPNIHEEKEMRIMTPEGKWHASKVLRIENIGESNLNVLYNCTVASTGGTDTKSFILVRKADHHHHHH
Regarding B2, in experiment [2], the “Hek Blue reporter assay EC50” value turned out to be 0.00109 nM. In addition, in experiment [3], the “Fold potency loss vs C086” value worked out at 26 fold and the “HEK-blue EC50” value was determined as 1.09 nM.

B3: C137 (ligand)
chain: YFGKLKSKLSIIRNLNDQVLFIDQGNRPLFEDMTDSDARDNAPRTIFIISMYADSQPRGMAVAISVKCEKISTLSAENKIISFKEMNPPDNIKDTKSDIIFFQRSVPGHDNKMQFESSSYEGYFLAAEKERDLFKLILKKEDELGDRSIMFTVQNEGGGGSGGGGSGGGGSNIVPVLLGPKLNHVAVELGKNVRLNCSALLNEEDVIYWMFGEENGSDPNIHEEKEMRIMTPEGKWHASKVLRIENIGESNLNVLYNCTVASTGGTDTKSFILVRKADHHHHHH
Take B3: the “Hek Blue reporter assay EC50” value in experiment [2] came out at 0.00208 nM. In addition, in experiment [3], the “Fold potency loss vs C086” value turned out to be 49 fold and the “HEK-blue EC50” value was 2.08 nM.

B4: C189 (ligand)
chain: YFGKLKSKLSIIRNLNDQVLFIDQGNRPLFEDMTDSDARDNAPRTIFIISMYADSQPRGMAVAISVKCEKISTLSAENKIISFKEMNPPDNIKDTKSDIIFFQRSVPGHDNKMQFESSSYEGYFLAAEKERDLFKLILKKEDELGDRSIMFTVQNESGGPGPAGMKGLPGSNIVPVLLGPKLNHVAVELGKNVRLDCSALLNEEDVIYWMFGEEDGSDPNIHEEKEMRIMTPEGKWHASKVLRIENIGESNLNVLYDCTVASTGGTDTKSFILVRKADHHHHHH
Take B4: the “Hek Blue reporter assay EC50” value in experiment [2] was found to be 0.00043 nM. In addition, in experiment [3], the “Fold potency loss vs C086” value worked out at 10 fold and the “HEK-blue EC50” value was 0.43 nM.

B5: C173 (ligand)
chain: YFGKLKSKLSIIRNLNDQVLFIDQGNRPLFEDMTDSDARDNAPRTIFIISMYADSQPRGMAVAISVKCEKISTLSAENKIISFKEMNPPDNIKDTKSDIIFFQRSVPGHDNKMQFESSSYEGYFLAAEKERDLFKLILKKEDELGDRSIMFTVQNEPLGLAGSNIVPVLLGPKLNHVAVELGKNVRLNCSALLNEEDVIYWMFGEENGSDPNIHEEKEMRIMTPEGKWHASKVLRIENIGESNLNVLYNCTVASTGGTDTKSFILVRKADHHHHHH
For B5, in experiment [2], the “Hek Blue reporter assay EC50” value worked out at 0.00013 nM.

B6: C324 + MMP9 (ligand)
chain: YFGKLKSKLSIIRNLNDQVLFIDQGNRPLFEDMTDSDARDNAPRTIFIISMYADSQPRGMAVAISVKCEKISTLSAENKIISFKEMNPPDNIKDTKSDIIFFQRSVPGHDNKMQFESSSYEGYFLAAEKERDLFKLILKKEDELGDRSIMFTVQNED
Turning to B6, the “IFNγ release NK-92 assay EC50” value in experiment [1] amounted to 0.0022 nM.

B7: C326 (ligand)
chain: MAAEPVEDNSINFVAMKFIDNTLYFIAEDDENLESDRGRRVANPLGLAGSGYFGKLKSKLSIIRNLNDQVLFIDQGNRPLFEDMTDSDARDNAPRTIFIISMYADSQPRGMAVAISVKCEKISTLSAENKIISFKEMNPPDNIKDTKSDIIFFQRSVPGHDNKMQFESSSYEGYFLAAEKERDLFKLILKKEDELGDRSIMFTVQNED
As for B7, the “IFNγ release NK-92 assay EC50” value in experiment [1] stood at 217 nM.

B8: C191 (ligand)
chain: YFGKLKSKLSIIRNLNDQVLFIDQGNRPLFEDMTDSDARDNAPRTIFIISMYADSQPRGMAVAISVKCEKISTLSAENKIISFKEMNPPDNIKDTKSDIIFFQRSVPGHDNKMQFESSSYEGYFLAAEKERDLFKLILKKEDELGDRSIMFTVQNESGGPLGLAGGSNIVPVLLGPKLNHVAVELGKNVRLNCSALLNEEDVIYWMFGEENGSDPNIHEEKEMRIMTPEGKWHASKVLRIENIGESNLNVLYNCTVASTGGTDTKSFILVRKADHHHHHH
Turning to B8, the “Hek Blue reporter assay EC50” value in experiment [2] was 0.00202 nM. In experiment [3], the “Fold potency loss vs C086” value came out at 48 fold and the “HEK-blue EC50” value turned out to be 2.02 nM.

B9: C324 (ligand)
chain: MAAEPVEDNSINFVAMKFIDNTLYFIAEDDENLESDRGRRVANPLGYFGKLKSKLSIIRNLNDQVLFIDQGNRPLFEDMTDSDARDNAPRTIFIISMYADSQPRGMAVAISVKCEKISTLSAENKIISFKEMNPPDNIKDTKSDIIFFQRSVPGHDNKMQFESSSYEGYFLAAEKERDLFKLILKKEDELGDRSIMFTVQNED
Take B9: the “IFNγ release NK-92 assay EC50” value in experiment [1] is 51.7 nM.

B10: C187 (ligand)
chain: MAAEPVEDNCINFVAMKFIDNTLYFIAEDDENLESDPLGLAGYFGKLKSKLSIIRNLNDQVLFIDQGNRPLFEDMTDSDARDNAPRTIFIISMYADSQPRGMAVAISVKCEKISTLSAENKIISFKEMNPPDNIKDTKSDIIFFQRSVPGHDNKMQFESSSYEGYFLAAEKERDLFKLILKKEDELGDRSIMFTVQNED
B10: the “Hek Blue reporter assay EC50” value in experiment [2] was 1.24 nM. Further, in experiment [3], the “Fold potency loss vs C086” value came out at 29400 fold and the “HEK-blue EC50” value was 1240 nM.

B11: C325 + MMP9 (ligand)
chain: LAGGSGYFGKLKSKLSIIRNLNDQVLFIDQGNRPLFEDMTDSDARDNAPRTIFIISMYADSQPRGMAVAISVKCEKISTLSAENKIISFKEMNPPDNIKDTKSDIIFFQRSVPGHDNKMQFESSSYEGYFLAAEKERDLFKLILKKEDELGDRSIMFTVQNED
For B11, the “IFNγ release NK-92 assay EC50” value in experiment [1] amounted to 0.0467 nM.

B12: C323 (ligand)
chain: MAAEPVEDNSINFVAMKFIDNTLYFIAEDDENLESDRGRRVANLVGGSGYFGKLKSKLSIIRNLNDQVLFIDQGNRPLFEDMTDSDARDNAPRTIFIISMYADSQPRGMAVAISVKCEKISTLSAENKIISFKEMNPPDNIKDTKSDIIFFQRSVPGHDNKMQFESSSYEGYFLAAEKERDLFKLILKKEDELGDRSIMFTVQNED
B12: in experiment [1], the “IFNγ release NK-92 assay EC50” value worked out at 102 nM.

B13: C325 (ligand)
chain: MAAEPVEDNSINFVAMKFIDNTLYFIAEDDENLESDRGRRPLGLAGGSGYFGKLKSKLSIIRNLNDQVLFIDQGNRPLFEDMTDSDARDNAPRTIFIISMYADSQPRGMAVAISVKCEKISTLSAENKIISFKEMNPPDNIKDTKSDIIFFQRSVPGHDNKMQFESSSYEGYFLAAEKERDLFKLILKKEDELGDRSIMFTVQNED
For the molecule B13, in experiment [1], the “IFNγ release NK-92 assay EC50” value was 201 nM.

B14: C314 (ligand)
chain: MAAEPVEDNAINFVAMKFIDNTLYFIAEDDENLESDPLGYFGKLKSKLSIIRNLNDQVLFIDQGNRPLFEDMTDSDARDNAPRTIFIISMYADSQPRGMAVAISVKCEKISTLSAENKIISFKEMNPPDNIKDTKSDIIFFQRSVPGHDNKMQFESSSYEGYFLAAEKERDLFKLILKKEDELGDRSIMFTVQNED
As for B14, in experiment [2], the “Hek Blue reporter assay EC50” value worked out at 4 nM. In experiment [1], the “IFNγ release NK-92 assay EC50” value was 255 nM.

B15: C315 (ligand)
chain: MAAEPVEDNSINFVAMKFIDNTLYFIAEDDENLESDPLGYFGKLKSKLSIIRNLNDQVLFIDQGNRPLFEDMTDSDARDNAPRTIFIISMYADSQPRGMAVAISVKCEKISTLSAENKIISFKEMNPPDNIKDTKSDIIFFQRSVPGHDNKMQFESSSYEGYFLAAEKERDLFKLILKKEDELGDRSIMFTVQNED
As for B15, the “Hek Blue reporter assay EC50” value in experiment [2] stood at 3.36 nM. For the same molecule, the “IFNγ release NK-92 assay EC50” value in experiment [1] stood at 252 nM.

B16: C136 (ligand)
chain: YFGKLKSKLSIIRNLNDQVLFIDQGNRPLFEDMTDSDARDNAPRTIFIISMYADSQPRGMAVAISVKCEKISTLSAENKIISFKEMNPPDNIKDTKSDIIFFQRSVPGHDNKMQFESSSYEGYFLAAEKERDLFKLILKKEDELGDRSIMFTVQNEGGSGGSNIVPVLLGPKLNHVAVELGKNVRLNCSALLNEEDVIYWMFGEENGSDPNIHEEKEMRIMTPEGKWHASKVLRIENIGESNLNVLYNCTVASTGGTDTKSFILVRKADHHHHHH
With B16, in experiment [2], the “Hek Blue reporter assay EC50” value was 0.000884 nM. Also, in experiment [3], the “Fold potency loss vs C086” value was found to be 21 fold and the “HEK-blue EC50” value was determined as 0.884 nM.
